Numbering of substitutions follows the chain as printed.
B1: rec263 (antibody, V domains shown)
VH: EVQLLESGGGLVQPGGSLRLSCAASGFTFSSYAMSWIRQAPGKGLEWVSAISASGGSTYYADSVKGRFTISRDNSKNTLYLQMNSLRAEDTAVYYCAKDRIVGATNYYYGMDVWGQGTTVTVSS
VL: DIQMTQSPPSVSASVGDRVTITCRASQGISSWLAWYQHKPGKAPKLLIYGASSLQSGVPSRFSGSGSGTDFTLTISSLQPEDFATYYCQQANSFPITFGQGTRLEIK
notes: also called rec263 antibody; rec263A1
B2: recM10 (antibody, V domains shown)
VH: QLQVQESGPGLVKPSETLSLICTVSGGSIRTSGYYWGWFRQPPGKGLEWIGTSHNSGSTYYNPSLKSRVTISVDTSKNQFSLKLNSVTAADTAVYYCARQGYDFKVNIDVWGQGTTVTVSS
VL: EIVLTQSPATLSLSPGERATLSCRASQSVSSYLAWYQQKPGQAPRLLIYDASNRATGIPARFSGSGSGTDFTLTISSLEPEDFAVYYCQQRSNWPLTFGGGTKVEIK
notes: also called recM10 antibody; M10 recombinant antibody
B3: recM165 (antibody, V domains shown)
VH: QVQLVESGGGVVQPGRSLRLSCAASGFTFSYYGMHWVRQAPGKGLEWVAVIWYDGSNKYYADSVKGRFTISRDNSKKTLYLQMNSLRAEDTAVYYCARDGHSSGWGDFQHWGQGTLVTVSS
VL: B2 VL with Y32S, V85I, L96P, G100Q
notes: also called recM165 antibody; M165 recombinant antibody
B4: recN26 (antibody, V domains shown)
VH: QVQLVESGGGVVQPGRSLRLSCAASGFTFSHYGMHWVRQAPGKGLEWVALIWYDGSNKYYADSVKGRFTISRDNSKNTLYLQMNSLRAEDTAVYYCARDPLAAGTSYFDYWGQGTLVTVSS
VL: EIVLTQSPDFQSVTPKEKVTITCRASQSIGSSLHWYQQKPDQSPKLLIKYASQSFSGVPSRFSGSGSGTDFTLTINSLEAEDAAAYYCHQSSSLPFTFGPGTKVDIK
notes: also called recN26 antibody; N26 recombinant antibody
B5: recQ54 (antibody, V domains shown)
VH: EVQLLESGGGLVQPGGSLRLSCAASGFTFSSYAMSWVRQAPGKGLEWVSDISGSGGYTYYADSVKGRFTISRDNSKNTLYLQMNSLRAEDTAVYYCAKTGDGSGSYSPDSWGQGTLVTVSS
VL: DIQMTQSPSSLSASVGDRVTITCRASQGISRWLAWYQQKPEKAPKSLIYAASSLQSGVPSRFSGSGSGTDFTLTISSLQPEDFATYYCQQYNSYPYTFGQGTKLEIK
notes: also called recQ54 antibody; Q54 recombinant antibody
B6: chimeric anti-A33 antibody (antibody, V domains shown)
VH: EVKLVESGGGLVKPGGSLKLSCAASGFAFSTYDMSWVRQTPEKRLEWVATISSGGSYTYYLDSVKGRFTISRDSARNTLYLQMSSLRSEDTALYYCAPTTVVPFAYWGQGTLVTVSS
VL: DIVMTQSQKFMSTSVGDRVSITCKASQNVRTVVAWYQQKPGQSPKTLIYLASNRHTGVPDRFTGSGSGTDFTLTISNVQSEDLADYFCLQHWSYPLTFGSGTKLEVK
notes: Mouse variable regions with human IgG1 heavy chain and light chain constant regions (N5KG1-Val Lark vector); also called cA33; chimeric anti-A33 recombinant antibody

Key:
[1] = target: T1, A33 antigen (full-length human A33) (human, UniProt Q99795 22-319); assay: FCM on NCI-H508 cells; grade = ng/ml to reach half MFI 175 (+++ 10<=x<100, ++ 100<=x<1000, + 1000<=x<10000)
T1 construct: Class I cell membrane protein of the Ig superfamily; also called GPA33; human A33 antigen
T1 sequence: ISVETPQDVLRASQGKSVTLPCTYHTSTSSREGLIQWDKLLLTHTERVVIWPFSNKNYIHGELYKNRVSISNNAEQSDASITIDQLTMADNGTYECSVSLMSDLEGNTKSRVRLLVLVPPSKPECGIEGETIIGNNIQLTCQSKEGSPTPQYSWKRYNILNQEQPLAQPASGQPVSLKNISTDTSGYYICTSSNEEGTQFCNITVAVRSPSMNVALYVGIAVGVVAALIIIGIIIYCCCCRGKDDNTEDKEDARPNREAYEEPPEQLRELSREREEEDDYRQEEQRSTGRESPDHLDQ

[2] = target: T1, A33 antigen (full-length human A33); assay: FCM competition on COLO205 cells as in Example 10; competitor mouse anti-A33 antibody
Experimental: (§1) Whether or not each type of purified monoclonal antibody obtained in Example 8 recognizes an epitope similar to that of the mouse anti-A33 antibody was examined by a competition test using FCM. The COLO205 cell line was suspended at a concentration of 2×10⁶/ml in a PBS Staining Buffer (SB) containing 0.1% NaN₃ and 2% FCS. The cell suspension (50 μl/well) was dispensed in a 96-well round bottom plate (produced by Becton, Dickinson and Company). The purified mouse anti-A33 antibody prepared in Example 1 was not added or added at a concentration of 100 μg/ml to the wells containing each type of purified monoclonal antibody (1 μg/ml and 50 μl), followed by 30 minutes of incubation on ice. A mouse negative control (containing no purified anti-A33 antibody added thereto) was prepared as follows. A human IgG1 antibody (produced by Sigma) was adjusted at a concentration of 1 μg/ml with SB and then 50 μl of the solution was added, followed by 30 minutes of incubation on ice. The resultant was washed twice with SB and then 50 μl of FITC fluorescence-labeled goat anti-human IgG F(ab′)₂ antibody (produced by IBL) was added, followed by 30 minutes of incubation on ice. The resultant was washed once with SB and then the resultant was suspended in 300 μl of a FACS buffer. The mean fluorescence intensity of each cell line was measured by FACS (FACScan produced by Becton, Dickinson and Company). The inhibition (%) between each type of purified monoclonal antibody and the mouse A33 antibody was calculated by the following formula: […]

[3] = target: T1, A33 antigen (full-length human A33); assay: FCM on COLO205 cells; grade = ng/ml to reach half MFI 45 (+++ 10<=x<100, ++ 100<=x<1000, + 1000<=x<10000)
[4] = target: T1, A33 antigen (full-length human A33); assay: FCM on LS174T cells; grade = ng/ml to reach half MFI 100 (+++ 10<=x<100, ++ 100<=x<1000, + 1000<=x<10000)
[5] = target: T1, A33 antigen (full-length human A33); assay: FCM on NCI-H508 cells; grade = ng/ml to reach half MFI 125 (+++ 10<=x<100, ++ 100<=x<1000, + 1000<=x<10000)
Description: (§2) The reactivity of each type of purified monoclonal antibody obtained in Example 8 to A33-antigen-expressing human colorectal cancer cell line COLO205 cells, LoVo cells (ATCC No. CCL-229), LS174T cells (ATCC No. CL-188), and NCI-H508 cells (ATCC No. CCL-253) was examined by FCM. Human colorectal cancer cell line HT-29 cells (ATCC No. HTB-38) expressing no A33 antigen were also examined as negative control cells. Each cell line was suspended at a concentration of 2×10⁶/ml in a PBS Staining Buffer (SB) containing 0.1% NaN₃ and 2% FCS. The cell suspension (50 μl/well) was dispensed in a 96-well round bottom plate (produced by Becton, Dickinson and Company). 50 μl of each type of purified monoclonal antibody (adjusted using SB at a concentration of 2000, 400, 80, or 16 ng/ml) was added, and then incubation was performed on ice for 30 minutes. A negative control was prepared depending on each subclass. Specifically, a human IgG1 antibody (produced by Sigma) was adjusted using SB at a concentration of 2000, 400, 80, or 16 ng/ml. 50 μl of the solution was added, followed by 30 minutes of incubation on ice. The resultant was washed twice with SB and then 50 μl of an FITC fluorescence-labeled goat anti-human IgG F(ab′)₂ antibody (produced by Southern Biotech), followed by 30 minutes of incubation on ice. The resultant was washed once with SB and then the resultant was suspended in 300 μl of a FACS buffer. The mean fluorescence intensity of each cell line was measured by FACS (FACScan produced by Becton, Dickinson and Company).
(§3) For COLO205 cells, the half value of the mean fluorescence intensity was determined to be 90. For LoVo cells, the half value of the mean fluorescence intensity was determined to be 25. […] When an antibody concentration required to reach such value was 10<=x<100 ng/ml, the reactivity was represented by +++, when the same was 100<=x<1000 ng/ml, the reactivity was represented by ++, and when the same was 1000<=x<10000 ng/ml, the reactivity was represented by +. When no binding was observed, the reactivity was represented by −.

[6] = target: T1, A33 antigen (full-length human A33); assay: FCM on LoVo cells; grade = ng/ml to reach half MFI 25 (+++ 10<=x<100, ++ 100<=x<1000, + 1000<=x<10000)
Description: as §2, §3

[7] = target: T1, A33 antigen (full-length human A33); assay: FCM on LS174T cells; grade = ng/ml to reach half MFI 125 (+++ 10<=x<100, ++ 100<=x<1000, + 1000<=x<10000)
Description: as §2, §3

[8] = target: T1, A33 antigen (full-length human A33); assay: FCM on COLO205 cells; grade = ng/ml to reach half MFI 90 (+++ 10<=x<100, ++ 100<=x<1000, + 1000<=x<10000)
Description: as §2, §3

[9] = target: T1, A33 antigen (full-length human A33); assay: FCM competition on COLO205 cells; antibody 1 µg/ml, competitor mouse anti-A33 antibody 100 µg/ml
Experimental: as §1

Binder | antibody concentration required to reach half value of the mean fluorescence intensity [1] | Inhibition (%) [2] | antibody concentration required to reach half value of the mean fluorescence intensity [3] | antibody concentration required to reach half value of the mean fluorescence intensity [4] | antibody concentration required to reach half value of mean fluorescence intensity [5] | antibody concentration required to reach half value of mean fluorescence intensity [6] | antibody concentration required to reach half value of mean fluorescence intensity [7] | antibody concentration required to reach half value of mean fluorescence intensity [8] | Inhibition (%) [9]
B1 | 100 to 1000 ng/mL | 15.3% | 100 to 1000 ng/mL | 100 to 1000 ng/mL | – | – | – | – | –
B2 | 10 to 100 ng/mL | 0.2% | 10 to 100 ng/mL | 10 to 100 ng/mL | – | – | – | – | –
B3 | 100 to 1000 ng/mL | 93.4% | 100 to 1000 ng/mL | 100 to 1000 ng/mL | – | – | – | – | –
B4 | 10 to 100 ng/mL | 95.3% | 100 to 1000 ng/mL | 10 to 100 ng/mL | – | – | – | – | –
B5 | 10 to 100 ng/mL | 44.6% | 10 to 100 ng/mL | 10 to 100 ng/mL | – | – | – | – | –
B6 | 10 to 100 ng/mL | 94.6% | 10 to 100 ng/mL | 10 to 100 ng/mL | 100 to 1000 ng/mL | 10 to 100 ng/mL | 100 to 1000 ng/mL | 10 to 100 ng/mL | 94.2%

— patent US20080200654A1 (KIRIN PHARMA, published 2008)
